# Data reported in article PMC9747694.
# pKd: −log10 of the molar value.
# Molecular target: SARS-CoV-2 XBB.1 S2P spike trimer (SARS-CoV-2)
# Test: SPR; spike captured through its C-terminal His-tag on a CM5 chip with anti-His antibodies (His Capture Kit); serially diluted human ACE2-Fc flowed over; HBS-EP+ buffer; 25°C; Biacore T200, single-cycle mode; 1:1 binding model
# Chain of human ACE2-Fc protein (from pcDNA3-sACE2-WT(732)-IgG1) (Q9BYF1 18-732): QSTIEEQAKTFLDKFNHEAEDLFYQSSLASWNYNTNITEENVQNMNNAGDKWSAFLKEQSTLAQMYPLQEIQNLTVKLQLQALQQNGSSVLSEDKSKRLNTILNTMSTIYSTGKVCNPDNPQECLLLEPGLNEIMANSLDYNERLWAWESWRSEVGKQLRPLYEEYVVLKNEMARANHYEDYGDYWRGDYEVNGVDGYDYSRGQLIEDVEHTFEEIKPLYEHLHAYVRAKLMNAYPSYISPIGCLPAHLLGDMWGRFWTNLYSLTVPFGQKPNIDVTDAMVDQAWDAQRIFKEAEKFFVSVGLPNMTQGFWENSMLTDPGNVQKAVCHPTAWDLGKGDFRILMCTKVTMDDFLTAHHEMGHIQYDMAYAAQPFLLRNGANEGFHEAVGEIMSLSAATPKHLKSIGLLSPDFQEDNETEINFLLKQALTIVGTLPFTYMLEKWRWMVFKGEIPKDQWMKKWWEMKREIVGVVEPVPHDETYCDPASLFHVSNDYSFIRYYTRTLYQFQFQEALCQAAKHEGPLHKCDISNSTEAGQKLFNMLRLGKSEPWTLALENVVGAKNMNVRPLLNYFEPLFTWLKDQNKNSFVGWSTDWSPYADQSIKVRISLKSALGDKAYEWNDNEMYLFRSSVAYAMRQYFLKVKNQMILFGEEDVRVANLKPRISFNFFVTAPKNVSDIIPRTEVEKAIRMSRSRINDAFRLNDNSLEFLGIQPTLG
substance,measurement,value
human ACE2-Fc protein (from pcDNA3-sACE2-WT(732)-IgG1) (from UniProt Q9BYF1 18-732) (Fc fusion),pKd,8.69
